This note sets out measurements from patent US20030235534A1, “Methods and compositions for radioimmunotherapy of brain and CNS tumors” (priority 2002, published 2003).

Structures are written as SMILES. *1 amine or outer side, *2 acyl side, *3 side chain or, on linkers, in order; H or OH if unused. Where a SMILES comes first, the peptide text is derived from it. Side-chain parts run from the residue outwards. [ ]: non-standard residue; d: D form. The star is where a group is joined. DOTA = O=C(O)CN1CCN(CC(=O)O)CCN(CC(=O)*)CCN(CC(=O)O)CC1; NH(2-(imidazol-4-yl)ethyl) = c1ncc(CCN*)[nH]1; Suc = O=C(CCC(=O)[*:2])[*:1]

One data set relates to glioblastome multiforme. Briefly: Treatment of a brain cancer patient with premixed bispecific antibody-mediated radioimmunotherapy using a beta-emitting radionuclide. Particulars: 1:1 molar mixture with bispecific antibody of Example 1; 12 mCi Y-90, 10 mg antibody, into reservoir, 4 days post surgery.
In data set [1] the test system is inoperable brain tumor in the pons. Description: Treatment of a brain cancer patient with pretargeted bispecific antibody-mediated radioimmunotherapy using an alpha-emitting radionuclide (intravenous).
Method: This preparation has an In-111 label to confirm targeting to the brain tumor by gamma camera imaging 24 h later. After two more days, to allow for adequate localization of the bispecific antibody to the tumor and clearance from the body, the Ac-225-IMP 241 of example 7, above, is also injected intravenously, at a dose of 1 mCi.
The test system of a further data set is glioblastoma multiforme. Description: Treatment of a brain cancer patient with pretargeted bispecific antibody-mediated radioimmunotherapy using an alpha-emitting radionuclide (hapten into surgical cavity).
Where [2] appears, read: 1 mCi i.v. after 30 mg i.v. humanized anti-tenascin x anti-HSG bispecific antibody, 8 weeks later.

Method for glioblastome multiforme: A patient with recently-diagnosed glioblastome multiforme in their left hemisphere, which is limited to a focal lesion, undergoes a gross total resection, with placement of a Rickham reservoir and catheter into the surgically-created resection cavity. Placement of the catheter is confirmed by an MRI scan 24 h later. […] The reservoir and catheter are flushed after the antibody injection.

As to `NC(=O)[C@H](CCCCNC(=O)CNC(=O)CCC(=O)NCCc1cnc[nH]1)NC(=O)[C@@H](Cc1ccc(O)cc1)NC(=O)[C@H](CCCCNC(=O)CNC(=O)CCC(=O)NCCc1cnc[nH]1)NC(=O)[C@H](Cc1ccccc1)NC(=O)CN1CCN(CC(=O)O)CCN(CC(=O)O)CCN(CC(=O)O)CC1` (90Y complex, metal not drawn) [Y-90-IMP 241] ({DOTA}-FK([Gly-Suc-NH(2-(imidazol-4-yl)ethyl)])[dY]K([Gly-Suc-NH(2-(imidazol-4-yl)ethyl)])-NH2), in the data set with glioblastome multiforme, the “tolerability of radioimmunotherapy procedure” value is listed as “tolerates the radioimmunotherapy procedure well”.

Turning to `NC(=O)[C@H](CCCCNC(=O)CNC(=O)CCC(=O)NCCc1cnc[nH]1)NC(=O)[C@@H](Cc1ccc(O)cc1)NC(=O)[C@H](CCCCNC(=O)CNC(=O)CCC(=O)NCCc1cnc[nH]1)NC(=O)[C@H](Cc1ccccc1)NC(=O)CN1CCN(CC(=O)O)CCN(CC(=O)O)CCN(CC(=O)O)CC1` [Ac-225-IMP 241, metal not drawn] ({DOTA}-FK([Gly-Suc-NH(2-(imidazol-4-yl)ethyl)])[dY]K([Gly-Suc-NH(2-(imidazol-4-yl)ethyl)])-NH2), in data set [1] (setting [2]), the “granulocytes (ANC) and platelets” value is “within the normal range”; the hematological toxicity entry was “no evidence of hematological toxicity”. The “adverse events from therapy” value in the data set with glioblastoma multiforme (1 mCi into surgical cavity two days after 30 mg i.v. humanized anti-tenascin x anti-HSG bispecific antibody) is recorded as “does not experience any adverse events”.

In the case of `Cn1nnc2c(C(N)=O)ncn2c1=O` [temozolomide, reference compound], the “additional reduction of the tumor” value in data set [1] (temozolomide therapy given three months after the 3-month follow-up of radioimmunotherapy) is recorded as 25%. Moreover, in the data set on glioblastoma multiforme (given after radioimmunotherapy), the “tolerability of chemotherapy regimen” value is on record as “tolerated well”.
